Paper PMC6325770

Target: enhanced green fluorescent protein-labelled G-protein-coupled receptor kinase-interacting protein 1 (GIT1) (UniProt Q9Y2X7)
Assay: MST; enhanced green fluorescent protein-labelled GIT1 in human embryonic kidney 293 cell lysate at constant 20 nmol/L, serial dilution of purified CLIC4; Monolith NT.115

Sequence of UniProt Q9Y2X7 (Q9Y2X7 whole entry): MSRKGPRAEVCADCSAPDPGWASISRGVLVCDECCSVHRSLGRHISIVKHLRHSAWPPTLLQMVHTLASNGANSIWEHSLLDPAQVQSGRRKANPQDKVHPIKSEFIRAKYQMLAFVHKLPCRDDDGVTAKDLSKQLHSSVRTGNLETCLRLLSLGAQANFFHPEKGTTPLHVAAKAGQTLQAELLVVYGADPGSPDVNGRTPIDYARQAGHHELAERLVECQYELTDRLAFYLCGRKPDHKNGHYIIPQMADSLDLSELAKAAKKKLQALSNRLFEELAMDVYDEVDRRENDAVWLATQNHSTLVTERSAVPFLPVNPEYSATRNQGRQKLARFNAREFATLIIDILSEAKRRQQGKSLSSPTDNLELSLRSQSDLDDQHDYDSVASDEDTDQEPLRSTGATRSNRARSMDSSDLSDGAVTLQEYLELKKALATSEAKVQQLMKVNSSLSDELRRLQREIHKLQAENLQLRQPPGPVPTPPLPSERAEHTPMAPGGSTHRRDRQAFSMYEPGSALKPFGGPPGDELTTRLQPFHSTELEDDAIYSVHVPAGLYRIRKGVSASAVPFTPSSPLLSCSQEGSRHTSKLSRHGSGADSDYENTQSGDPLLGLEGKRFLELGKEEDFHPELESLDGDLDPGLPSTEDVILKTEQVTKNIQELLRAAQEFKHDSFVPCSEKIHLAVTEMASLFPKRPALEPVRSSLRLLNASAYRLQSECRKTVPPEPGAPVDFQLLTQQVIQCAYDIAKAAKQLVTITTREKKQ

**Q.** For “purified CLIC4 (ab104744; Abcam) (from UniProt Q9Y696 1-253) (natural protein)”, which Kd is on record?
**A.** 1800 nM
